# From paper PMC12416549 (2024)
# Substitutions are numbered along the chain they refer to. Names may count otherwise.
# T1: TNFR1 (Homo sapiens, UniProt P19438)
# T1 chain: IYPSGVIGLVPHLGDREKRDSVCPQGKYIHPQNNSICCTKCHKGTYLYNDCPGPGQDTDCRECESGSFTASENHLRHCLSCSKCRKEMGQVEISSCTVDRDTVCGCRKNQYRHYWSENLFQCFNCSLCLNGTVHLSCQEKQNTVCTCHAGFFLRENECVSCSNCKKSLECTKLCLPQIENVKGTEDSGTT
# B1: V6R (designed binder)
# chain: SMEEEREKAAKEYEKKKKEAIEKHLEKLKAKDKEAAERFLKELEEAAKEYAKDEAKTMSEEEAKRRAKKYKEKVLLSELSEEEQKEIKEAEEKLVRTILKYVEEAAK
# B2: K93G (designed binder)
# chain: B1 chain with R6V, K93G
# B3: L40V (designed binder)
# chain: B1 chain with R6V, L40V
# B4: L75S (designed binder)
# chain: B1 chain with R6V, L75S
# B5: E86C (designed binder)
# chain: B1 chain with R6V, E86C
# B6: R66N (designed binder)
# chain: B1 chain with R6V, R66N
# B7: L94Y (designed binder)
# chain: B1 chain with R6V, L94Y
# B8: L79Q (designed binder)
# chain: B1 chain with R6V, L79Q
# B9: K17N (designed binder)
# chain: B1 chain with R6V, K17N
# B10: E72A (designed binder)
# chain: B1 chain with R6V, E72A
# B11: V6E (designed binder)
# chain: B1 chain with R6E
# B12: E26T (designed binder)
# chain: B1 chain with R6V, E26T
# B13: E34T (designed binder)
# chain: B1 chain with R6V, E34T
# B14: K27Y (designed binder)
# chain: B1 chain with R6V, K27Y
# B15: A47F (designed binder)
# chain: B1 chain with R6V, A47F
# B16: K48V (designed binder)
# chain: B1 chain with R6V, K48V
# B17: K69R (designed binder)
# chain: B1 chain with R6V, K69R
# B18: A67P (designed binder)
# chain: B1 chain with R6V, A67P
# B19: S77M (designed binder)
# chain: B1 chain with R6V, S77M
# B20: E86H (designed binder)
# chain: B1 chain with R6V, E86H
# B21: Y13R (designed binder)
# chain: B1 chain with R6V, Y13R
# B22: F39Y (designed binder)
# chain: B1 chain with R6V, F39Y
# B23: Y13K (designed binder)
# chain: B1 chain with R6V, Y13K
# B24: R96L (designed binder)
# chain: B1 chain with R6V, R96L
# B25: I21M (designed binder)
# chain: B1 chain with R6V, I21M
# B26: E22R (designed binder)
# chain: B1 chain with R6V, E22R
# B27: A55S (designed binder)
# chain: B1 chain with R6V, A55S
# B28: A46H (designed binder)
# chain: B1 chain with R6V, A46H
# B29: E12F (designed binder)
# chain: B1 chain with R6V, E12F
# B30: K31D (designed binder)
# chain: B1 chain with R6V, K31D
# B31: K15G (designed binder)
# chain: B1 chain with R6V, K15G
# B32: K8G (designed binder)
# chain: B1 chain with R6V, K8G
# B33: R38H (designed binder)
# chain: B1 chain with R6V, R38H
# B34: V74C (designed binder)
# chain: B1 chain with R6V, V74C
# B35: E37W (designed binder)
# chain: B1 chain with R6V, E37W
# B36: L75G (designed binder)
# chain: B1 chain with R6V, L75G
# B37: T97W (designed binder)
# chain: B1 chain with R6V, T97W
# B38: K29Q (designed binder)
# chain: B1 chain with R6V, K29Q
# B39: R96W (designed binder)
# chain: B1 chain with R6V, R96W
# B40: L76C (designed binder)
# chain: B1 chain with R6V, L76C
# B41: V102K (designed binder)
# chain: B1 chain with R6V, V102K
# B42: E37Y (designed binder)
# chain: B1 chain with R6V, E37Y
# B43: E26W (designed binder)
# chain: B1 chain with R6V, E26W
# B44: A35I (designed binder)
# chain: B1 chain with R6V, A35I
# B45: L43E (designed binder)
# chain: B1 chain with R6V, L43E
# B46: E12V (designed binder)
# chain: B1 chain with R6V, E12V
# B47: L94C (designed binder)
# chain: B1 chain with R6V, L94C
# B48: E12L (designed binder)
# chain: B1 chain with R6V, E12L
# B49: K11L (designed binder)
# chain: B1 chain with R6V, K11L
# B50: K107R (designed binder)
# chain: B1 chain with R6V, K107R
# B51: E19G (designed binder)
# chain: B1 chain with R6V, E19G
# B52: E26M (designed binder)
# chain: B1 chain with R6V, E26M
# B53: A67I (designed binder)
# chain: B1 chain with R6V, A67I
# B54: E60F (designed binder)
# chain: B1 chain with R6V, E60F
# B55: E44M (designed binder)
# chain: B1 chain with R6V, E44M
# B56: A9D (designed binder)
# chain: B1 chain with R6V, A9D
# B57: F39P (designed binder)
# chain: B1 chain with R6V, F39P
# B58: E104N (designed binder)
# chain: B1 chain with R6V, E104N
# B59: M58F (designed binder)
# chain: B1 chain with R6V, M58F
# Target: T1, TNFR1
# Experiment: yeast display SC50
row,apparent Kd (screen) [nM],Binder
1,0.653,B1
2,0.79,B2
3,0.49,B3
4,0.718,B4
5,0.653,B5
6,16.7,B6
7,0.446,B7
8,2.48,B8
9,2.73,B9
10,2.73,B10
11,11.4,B11
12,0.593,B12
13,0.446,B13
14,0.593,B14
15,0.593,B15
16,0.653,B16
17,1.27,B17
18,0.593,B18
19,1.4,B19
20,1.69,B20

row,apparent Kd (screen) [nM],Binder
1,12.5,B21
2,1.4,B22
3,7.07,B23
4,0.718,B24
5,0.539,B25
6,0.446,B26
7,1.69,B27
8,1.16,B28
9,0.539,B29
10,0.956,B30
11,0.653,B31
12,0.593,B32
13,1.4,B33
14,4.39,B34
15,0.49,B35
16,0.368,B36
17,2.48,B37
18,0.593,B38
19,2.05,B39
20,3,B40

row,apparent Kd (screen) [nM],Binder
1,1.27,B41
2,0.49,B42
3,1.05,B43
4,0.539,B44
5,16.7,B45
6,0.956,B46
7,2.73,B47
8,0.49,B48
9,0.49,B49
10,1.54,B50
11,0.49,B51
12,0.539,B52
13,7.07,B53
14,0.956,B54
15,0.956,B55
16,1.16,B56
17,4.83,B57
18,0.718,B58
19,11.4,B59
